Results taken from the nanobody polyreactivity screen of Harvey et al. (2022).

Experiment: yeast display, Sf9 membrane polyspecificity reagent, FACS + sequencing; frameworks hold sequencing errors
How it was run: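 A nanobody's polyreactivity label depends on the gate it was sorted from. Yeast display cells were stained with 10% biotinylated, detergent-solubilized Sf9 membrane reagent for 1 hour at 4 °C, enriched on streptavidin microbeads and sorted by FACS. The low and high (top ~1%) gates were set on anti-HA fluorescence for expression and streptavidin fluorescence for reagent binding.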

Sequence	polyreactivity (PSR sort gate)
QVQLVESGGGLVQAGGSLRLSCAASGSTFGENAMGWYRQAPGKERELVAGINSTGGSTYYADSVKGRFTISRDHAKNNVYLQMNSLNPEDTAVYYCAAGDWYSGNTSHFYYWGQGTQVTVSS	low polyreactivity
QVQLVESGGGLVQAGGSLRLSCAASGSTFGEYAMGWYRQAPGKERELVASITFSAGSTDYADSVKGRFTISRDNAKNTVYLQMNSLKPEDTAVYYCAADGWWPWEYDYWGQGTQVTVSS	low polyreactivity
QVQLVESGGGLVQAGGSLRLSCAASGSTFGFNAKGWYRKAPGKERELFAAIDKSGDRHYYADSVKGRFTISRDNAKNSVYLQMNSLKTVDTAVYYCAGDIPFYRYEYWGQGTQVTVSS	high polyreactivity
QVQLVESGGGLVQAGGSLRLSCAASGSTFGFNAMGWYRQAPGKERELVAAIDGSAGSTYYADSVKGRFTISRDNAKNTVYLQMNSLKPEDTAVYYCAADIYWFIEYEYWGQGTQVTVSS	low polyreactivity
QVQLVESGGGLVQAGGSLRLSCAASGSTFGFYAMGWYRQAPGKERELVAAISVSGGSTYYADSVKGRFTISRDNAKNTVYLQMNSLNPEDTGVYYCNKVWRPRYYWGLGTQVTVSS	high polyreactivity
QVQLVESGGGLVQAGGSLRLSCAASGSTFGFYTMGWYRPAPGKERELVAAISWSTGRTYYADSVKGRFTISRDNAKNTVYLQMNSLKPEDTAVYYCAARAVDKYRFGGRYDYWGQGTQVTVSS	low polyreactivity
QVQLVESGGGLVQAGGSLRLSCAASGSTFGGNAMGWYRKAPGKERELVAVISKRGGSTYYADSVKGRFTISRDNAKNTVYLQMNSLKPEDTAVYYCAATYSRYWSPTYDYWGQGTQVTVSS	high polyreactivity
QVQLVESGGGLVQAGGSLRLSCAASGSTFGGNAMGWYRPAPGKERELVAGITTGGTTNYADSVKGRFTISRDNAKNTVYLQMISLIPEDTAVYYCAAGPSSSLTLYDYWGQGTQVTVSS	low polyreactivity
QVQLVESGGGLVQAGGSLRLSCAASGSTFGGNAMGWYRQAPGKERELVAAISSGDSTTYADSVKGRFTISRDNAKNTVYLQMNSLKPEDTAVYYSNRSPKSGQVTYLYSVNAHYDYWGQGTQVTVSS	low polyreactivity
QVQLVESGGGLVQAGGSLRLSCAASGSTFGGYAMGWYRQAPGKEREFVAAISWRGGGTYYADSVKGRFTISRDNAMNTVYLQMNSLKPEDTAVYYCAAERRYTYQYNYWGQGTQVTVSS	high polyreactivity
QVQLVESGGGLVQAGGSLRLSCAASGSTFGGYAMGWYRQAPGKERELVAAISQSGTRSYYADSVKGRFTISRDNAKNTVYLQMNSLKPEDTAVYYCAAEKRFRKYDYWGQGTQVTVSS	high polyreactivity
QVQLVESGGGLVQAGGSLRLSCAASGSTFGGYAMGWYRQAPGKERELVAGISSGTSTYYADSVKGRFTISRDNAKNTVYLQMNSLKPEDTAVYYCAKYSYYRKLGYWGQGTQVTVSS	high polyreactivity
QVQLVESGGGLVQAGGSLRLSCAASGSTFGGYAMGWYRQAPGKERELVATINYSDGSTYYADSVKGRFTISRDNAKNTVYLQMNSLKPEDTAVYYCAKRFGSGWAWFGYWGQGTQVTVSS	low polyreactivity
QVQLVESGGGLVQAGGSLRLSCAASGSTFGGYAMGWYRQAPGKERELVATITGGGSTNYADSVKGRFTISRDNAKNTVYLQMNSLKPEDTAVYYCAATEKYQYKVFYDPVGAYDYWGQGTQVTVSS	low polyreactivity
QVQLVESGGGLVQAGGSLRLSCAASGSTFGGYTMGWYRQAPGKERELVAAITSGGGRTYYADSVKGRFTISRDNSKNTVYLQMNSLKPEDTAVYYCATGYKGLYWKYDYWGQGTLVTVSS	high polyreactivity
QVQLVESGGGLVQAGGSLRLSCAASGSTFGHNAMGWYRQATGKERELVAAISKSGGRTYYADSVKGRFTISRDNAKNTVYLQMNSLKPEDTAVYYCAKDGVVGSGTLNIYDYWGQGTQVTVSS	low polyreactivity
QVQLVESGGGLVQAGGSLRLSCAASGSTFGHYAMGCYRQAPGKERDLVAAISWSGASTYYADSVKGRFTISRDNAKNTVYLQMNSLKPEDTAVYYCAAESYRQTYYVGDGYEDDYWGQGTQVTVSS	low polyreactivity
QVQLVESGGGLVQAGGSLRLSCAASGSTFGHYAMGRYRQAPGKESELVSAISTSGGRTYYADSVKGRFTISRDNAKNTVYLQMNSLKPEDTAVYYCATRRYGVDKFDYWGQGTQVTVSS	high polyreactivity
QVQLVESGGGLVQAGGSLRLSCAASGSTFGKYAMGWYRQAPGKERELVAAITESDSSTYYADSVKGRFTLSRDNAKNTVYLQMNSLKPEDTAVDYCAADSLYSYPWSTYFYGGDYWGQGTQVTVSS	low polyreactivity
QVQLVESGGGLVQAGGSLRLSCAASGSTFGLNVMGWYRQAPGKEREFVAGISRSGGRTYYADSVKGRFTISRDNAKNTVYLQMNSLKPADTAVYYCAADYWTGITPDAIGDYWGQGTQVTVSS	low polyreactivity
QVQLVESGGGLVQAGGSLRLSCAASGSTFGLYAMGWYRQAPGKERELVAAITIRGGSTYYADSVKGRFTISRDNAKNTVYLQMNSLKPEDTAVYYCAADYWYGGFEYWGQGTQVTVSS	low polyreactivity
QVQLVESGGGLVQAGGSLRLSCAASGSTFGNYAMGWYRQAPGKEMELVAAISTSGDSTYYADSVKGRFTISRDNAKYTVYLQMNSLKPEDSAVYYCKARGIATGNRHEYWGQGTQVTVSS	low polyreactivity
QVQLVESGGGLVQAGGSLRLSCAASGSTFGNYAMGWYRQAPGKERELVAAIRSRGGRTYYADSVKGRFTISRDYAKNTVYLQMNSLKPVDTAVYYCARDSRTGYYYWGQGTQVTVSS	high polyreactivity
QVQLVESGGGLVQAGGSLRLSCAASGSTFGNYAMGWYRQAPGKERELVAAISVGDGSTYYADSVKGRFTISRDNAKNTVYLQMNSLKPEDTAFYYCAADFVYPSWHYDYWGQGTQVTVSS	high polyreactivity
QVQLVESGGGLVQAGGSLRLSCAASGSTFGNYAMGWYRQAPGKERELVATISRSGGSTYYADSVQGRFTISRDIAKNTVNLQMNSLKPEDTAVYYCNRRYYTRKPDYNSWGQGTQVTVSS	high polyreactivity
QVQLVESGGGLVQAGGSLRLSCAASGSTFGPNAMGWYRQAPGKERELVAAIRSNGGRTYYADSVKGRFTISRDNAKITVYLQMNSLKPEDSAVYYCADPHYPYDTPYGYWGQGTQVTVSS	low polyreactivity
QVQLVESGGGLVQAGGSLRLSCAASGSTFGPYAMGWYRQAPGKERELVAAISSRGARTYYADSVKGRFTISRDNAKNTVYLQMNSLKPEDTAVYYCANTYHGTAYDYWGQGTQVTVSS	high polyreactivity
QVQLVESGGGLVQAGGSLRLSCAASGSTFGPYAMGWYRQAPGKERELVADISGGSTNYADSVKGRFTISRDNAKNTVYLQMNSLKPEDTAVYYGAADSYPAYLGFVGFDYWGQGTQVTVSS	low polyreactivity
QVQLVESGGGLVQAGGSLRLSCAASGSTFGPYAMGWYRQAPGKERELVAVITTSGSTNYADSVKGRFTISRDNAKNTVYLQMNSLKPEDTAVSYCAARYRYYGTNRYYYWGQGTQVTVSS	high polyreactivity
QVQLVESGGGLVQAGGSLRLSCAASGSTFGPYTMGWYRQAPGKERELVATISSGGSTYYADSVKGRFTISRDNAKNTVYLQMNSLKPEDTAVYYCARDSYWEMDYWGQGTQVTVSS	low polyreactivity
